This series can be described thus: flow cytometry of surface IL-17RC, ST2 cells. Conditions: glycan lost; control: SF-IL-17RCWT. (In general: In flow cytometry, cells or beads pass a laser one at a time.)

Our source for the localisation_or_trafficking values is paper PMC9663306.

B1: IL-17RC: SF-IL-17RCMutE (protein)
parent chain: MPVSWFLLSLALGRNPVVVSLERLMEPQDTARCSLGLSCHLWDGDVLCLPGSLQSAPGPVLVPTRLQTELVLRCPQKTDCALCVRVVVHLAVHGHWAEPEEAGKSDSELQESRNASLQAQVVLSFQAYPIARCALLEVQVPADLVQPGQSVGSAVFDCFEASLGAEVQIWSYTKPRYQKELNLTQQLPDCRGLEVRDSIQSCWVLPWLNVSTDGDNVLLTLDVSEEQDFSFLLYLRPVPDALKSLWYKNLTGPQNITLNHTDLVPCLCIQVWSLEPDSERVEFCPFREDPGAHRNLWHIARLRVLSPGVWQLDAPCCLPGKVTLCWQAPDQSPCQPLVPPVPQKNATVNEPQDFQLVAGHPNLCVQVSTWEKVQLQACLWADSLGPFKDDMLLVEMKTGLNNTSVCALEPSGCTPLPSMASTRAARLGEELLQDFRSHQCMQLWNDDNMGSLWACPMDKYIHRRWVLVWLACLLLAAALFFFLLLKKDRRKAARGSRTALLLHSADGAGYERLVGALASALSQMPLRVAVDLWSRRELSAHGALAWFHHQRRRILQEGGVVILLFSPAAVAQCQQWLQLQTVEPGPHDALAAWLSCVLPDFLQGRATGRYVGVYFDGLLHPDSVPSPFRVAPLFSLPSQLPAFLDALQGGCSTSAGRPADRVERVTQALRSALDSCTSSSEAPGCCEEWDLGPCTTLE
For B1, the localisation_or_trafficking result is recorded as “decreases”.
